The values below come from patent US20240132578A1.

By IC50 is commonly meant the concentration that gives 50% inhibition. A higher IC50 goes with weaker potency in that assay.

Common to all, as to experiment: cell-based or functional assay
The target in assay [1] is HIV-1 Env of isolate 92UG005 (HIV-1).
In assay [2] the target is HIV-1 Env of isolate MGRM-G-025 (subtype G) (HIV-1).
Assay [3] deals with HIV-1 Env of isolate 92RW009 (subtype A) (HIV-1).
Assay [4] concerns the target HIV-1 Env of isolate 92UG114 (HIV-1).
Assay [5] concerns the target HIV-1 Env of isolate 94 KE 105 (pseudovirus) (HIV-1).
Assay [6] deals with HIV-1 Env of pseudovirus isolate MGRM-Chronic-B-004 (clade B) (HIV-1).
The target of assay [7] is HIV-1 Env of isolate 92UG037 (clade A pseudovirus) (HIV-1).
The target in assay [8] is aMLV envelope on pseudovirus (negative control).
For assay [9], the target named is HIV-1 Env of pseudovirus MGRM-G-019 (HIV-1).
Assay [10] concerns the target HIV-1 Env of isolate MGRM-Chronic-B-001, clade B (HIV-1).
The target in assay [11] is HIV-1 MGRM-AG-005 Env (pseudovirus) (HIV-1).
Assay [12] concerns the target HIV-1 Env of isolate APV_17, clade B (HIV-1).
For assay [13], the target named is HIV-1 Env of pseudovirus MGRM-F1-021 (clade F) (HIV-1).
In assay [14] the target is HIV-1 Env of isolate 93IN905 (Clade C) (HIV-1).
Assay [15] addresses HIV-1 Env of pseudovirus MGRM-G-027 (HIV-1).
Assay [16] has as its target HIV-1 Env of isolate 92UG001 (clade D pseudovirus) (HIV-1).
Assay [17] addresses HIV-1 MGRM-AG-003 Env (pseudovirus) (HIV-1).
Assay [18] addresses HIV-1 Env of isolate APV_13, clade B (HIV-1).
For assay [19], the target named is HIV-1 Env of isolate 92TH021 (CRF01_AE) (HIV-1).
The target in assay [20] is HIV-1 Env of isolate MGRM-D-019 (clade D pseudovirus) (HIV-1).
In assay [21] the target is HIV-1 envelope glycoprotein (Env) of isolate MGRM-C-013 (HIV-1).
Assay [22] deals with HIV-1 MGRM-G-004 Env (pseudovirus) (HIV-1).
The target in assay [23] is HIV-1 Env of pseudovirus MGRM-D-012 (HIV-1).
Assay [24] concerns the target HIV-1 envelope glycoprotein (Env) of isolate MG RM-AG-013 (HIV-1).
The target of assay [25] is HIV-1 Env of pseudovirus MGRM-F1-008 (HIV-1).
The target of assay [26] is HIV-1 Env of pseudovirus MGRM-F1-017 (HIV-1).
In another assay the target is HIV-1 NL43 Env (HIV-1).
The target of assay [27] is HIV-1 92UG024 envelope protein (Env) on pseudovirus (HIV-1).
Assay [28] has as its target HIV-1 Env of isolate MGRM-F1-021 (HIV-1).
Assay [29] deals with HIV-1 JR-CSF Env L416A (HIV-1 (isolate JR-CSF)) (UniProt P20871).
Assay [30] addresses HIV-1 Env of pseudovirus isolate MGRM-C-014 (clade C) (HIV-1).
For assay [31], the target named is HIV-1 Env of isolate MGRM-AE-001 (subtype AE) (HIV-1).
For assay [32], the target named is HIV-1 MGRM-AG-005 envelope protein (Env) on pseudovirus (HIV-1).
In assay [33] the target is HIV-1 Env of isolate 92UG114 (pseudovirus) (HIV-1).
Assay [34] has as its target HIV-1 CMU02 envelope protein (Env) on pseudovirus (HIV-1).
Assay [35] deals with HIV-1 JR-CSF Env I420A (HIV-1 (isolate JR-CSF)) (UniProt P20871).
The target of assay [36] is HIV-1 JR-CSF Env Q422A (HIV-1 (isolate JR-CSF)) (UniProt P20871).
For a further assay, the target named is aMLV envelope.
Assay [37] concerns the target HIV-1 Env of pseudovirus isolate MGRM-C-010 (clade C) (HIV-1).
For assay [38], the target named is HIV-1 Env of isolate MGRM-A-009 (subtype A) (HIV-1).
The target of assay [39] is HIV-1 Env of isolate MGRM-AG-002 (subtype AG) (HIV-1).

Chain of PGT-142 (4995_E20) (antibody) (VH): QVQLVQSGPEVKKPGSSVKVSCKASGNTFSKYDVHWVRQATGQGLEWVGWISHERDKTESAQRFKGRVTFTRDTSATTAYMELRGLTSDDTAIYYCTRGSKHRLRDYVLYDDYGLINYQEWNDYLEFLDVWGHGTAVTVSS
Chain of PGT-142 (4995_E20) (antibody) (VL): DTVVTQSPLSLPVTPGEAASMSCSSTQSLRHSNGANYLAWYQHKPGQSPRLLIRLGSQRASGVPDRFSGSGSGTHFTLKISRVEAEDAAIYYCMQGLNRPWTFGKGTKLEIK
Chain of 4980_N08 (PGT-143) (antibody) (VH): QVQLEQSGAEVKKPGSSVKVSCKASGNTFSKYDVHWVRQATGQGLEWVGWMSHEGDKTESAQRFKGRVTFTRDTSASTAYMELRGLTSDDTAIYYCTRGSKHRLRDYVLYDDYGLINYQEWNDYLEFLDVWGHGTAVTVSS
Chain of 4980_N08 (PGT-143) (antibody) (VL): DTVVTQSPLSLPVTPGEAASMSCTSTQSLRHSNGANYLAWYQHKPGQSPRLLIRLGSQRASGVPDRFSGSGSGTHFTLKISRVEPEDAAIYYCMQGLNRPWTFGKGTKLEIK
Chain of 4995_P16 (PGT-145) (antibody) (VH): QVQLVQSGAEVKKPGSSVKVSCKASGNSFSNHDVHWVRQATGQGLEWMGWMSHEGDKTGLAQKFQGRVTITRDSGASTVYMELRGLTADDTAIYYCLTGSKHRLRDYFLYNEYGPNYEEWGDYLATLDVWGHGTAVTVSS
Chain of 4995_P16 (PGT-145) (antibody) (VL): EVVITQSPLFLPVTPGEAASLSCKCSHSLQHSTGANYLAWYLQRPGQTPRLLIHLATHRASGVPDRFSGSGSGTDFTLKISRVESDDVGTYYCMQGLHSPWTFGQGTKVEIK
Chain of PGT-141 (4964_G22; 4993_K13) (antibody) (VH): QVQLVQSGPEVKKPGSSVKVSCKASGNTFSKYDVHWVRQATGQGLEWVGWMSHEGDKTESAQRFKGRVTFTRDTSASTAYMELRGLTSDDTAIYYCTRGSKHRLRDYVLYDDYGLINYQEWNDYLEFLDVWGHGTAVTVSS
Chain of 4970_K22 (PGT-144) (antibody) (VH): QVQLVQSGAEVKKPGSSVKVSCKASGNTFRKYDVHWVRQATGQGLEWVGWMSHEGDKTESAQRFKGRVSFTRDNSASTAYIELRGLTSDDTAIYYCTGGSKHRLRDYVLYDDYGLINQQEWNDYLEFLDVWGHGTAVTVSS
Chain of 4970_K22 (PGT-144) (antibody) (VL): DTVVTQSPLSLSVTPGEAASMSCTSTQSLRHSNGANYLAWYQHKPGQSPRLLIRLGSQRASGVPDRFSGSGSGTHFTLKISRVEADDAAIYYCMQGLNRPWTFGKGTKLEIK

For the substance 4995_P16 (PGT-145) (antibody), the IC50 (µg/mL), pseudovirus neutralization in assay [1] is over 50 µg/mL; in assay [2], over 50 µg/mL; in [4], 20.1 µg/mL. For the same substance, the results for the IC50, pseudovirus neutralization in assay [3] and in assay [6] were 0.026 µg/mL and 0.023 µg/mL, respectively. Further, in assay [5], the IC50 (µg/mL), single-round pseudovirus neutralization was determined as 1.32 µg/mL.
Take b12 (antibody): the IC50 (µg/ml), pseudovirus neutralization in [7] was over 50 µg/mL; in assay [9], 3.77 µg/mL; in assay [10], 0.75 µg/mL; in assay [11] it was over 50 µg/mL; in [12], over 50 µg/mL; in assay [15], over 50 µg/mL. The IC50 (µg/ml), pseudovirus neutralization in assay [17], in [18], in assay [21] and in assay [22] was over 50 µg/mL in each case. Also, in assay [8], the neutralization IC50 is over 50 µg/mL. Further, the IC50 in [13] is over 50 µg/mL. In addition, the IC90 (neutralization of pseudovirus) in assay [14] and in assay [19] was over 50 µg/mL each time. Also, the IC50, pseudovirus neutralization in assay [16] is 1.01 µg/mL; in assay [20] it was over 50 µg/mL.
For 4980_N08 (PGT-143) (antibody), the IC50 (µg/mL), pseudovirus neutralization in assay [1], in [2] and in assay [4] was over 50 µg/mL each time. For the same substance, the results for the IC50, pseudovirus neutralization in [3] and in assay [6] were 0.01 µg/mL and 0.395 µg/mL, respectively. Also, the IC50 (µg/mL), single-round pseudovirus neutralization in [5] was determined as 0.368 µg/mL.
Consider 4970_K22 (PGT-144) (antibody), for which the IC50 (µg/mL), pseudovirus neutralization in assay [1], in [2] and in [4] was over 50 µg/mL throughout. The IC50, pseudovirus neutralization in assay [3] turned out to be 0.893 µg/mL; in assay [6], 9.41 µg/mL. The substance further returned an IC50 (µg/mL), single-round pseudovirus neutralization in [5] of 0.29 µg/mL.
1495_C14 (PGC14) (antibody): the IC50 (µg/ml), pseudovirus neutralization in assay [7], in [9], in assay [10], in assay [11], in [12] and in assay [15] was over 50 µg/mL throughout. Further, the IC50 (µg/ml), pseudovirus neutralization in assay [17], in assay [18], in [21] and in assay [22] was over 50 µg/mL throughout. For the same substance, the neutralization IC50 in [8] is over 50 µg/mL. Moreover, in assay [13], the half-inhibitory concentration (IC50) turned out to be 46 µg/mL. The IC50, pseudovirus neutralization in [16] and in assay [20] was over 50 µg/mL throughout.
PGT-141 (4964_G22; 4993_K13) (antibody): the IC50, pseudovirus neutralization was over 50 µg/mL in assay [23], 0.193 µg/mL in assay [25] and 30.8 µg/mL in assay [26]. In assay [24], this substance yielded a concentration for half-maximal inhibition (IC50) of over 50 µg/mL.
For VRC01 (antibody), the IC50 (µg/mL), pseudovirus neutralization in assay [1] is 0.576 µg/mL; in [2], 0.292 µg/mL; in [4] it was 0.33 µg/mL. Besides, the IC50, pseudovirus neutralization is 0.216 µg/mL in [23]; 0.187 µg/mL in assay [3]; 1.11 µg/mL in assay [25]; 0.055 µg/mL in assay [6]; 1.08 µg/mL in assay [26]. This substance had an IC50 in [24] of 0.197 µg/mL. Further, the IC50 (µg/mL), single-round pseudovirus neutralization in [5] was 0.499 µg/mL.
Turning to 5147_N06 (PGT-130) (antibody), the IC50, pseudovirus neutralization with HIV-1 NL43 Env (HIV-1) was over 10 µg/mL; in assay [30] it was over 50 µg/mL; in assay [31], 1 µg/mL; in the assay with aMLV envelope, over 10 µg/mL; in assay [37], over 50 µg/mL; in assay [38], 0.308 µg/mL. In [39], the IC50, pseudovirus neutralization was over 50 µg/mL. The IC50 (ug/mL), pseudovirus neutralization was over 10 µg/mL in [27], 0.947 µg/mL in assay [32] and over 10 µg/mL in assay [34]. Further, the IC50 (µg/mL), pseudovirus neutralization in assay [28] and in [33] was over 50 µg/mL throughout. The Fold IC50 increase relative to wild-type (pseudovirus neutralization) in [29] amounted to 1 fold; in [35], 9.8 fold; in assay [36] it was 1 fold.
As for PGT-144 (4970_K22) (antibody), the IC50, pseudovirus neutralization in [23] was over 50 µg/mL; in assay [25], 0.507 µg/mL; in assay [26] it was over 50 µg/mL. The half-inhibitory concentration (IC50) in [24] is over 40 µg/mL.
For the substance 4995_E20 (PGT-142) (antibody), the IC50 (µg/mL), pseudovirus neutralization in [1], in assay [2] and in assay [4] was over 50 µg/mL in each case. Also, the IC50, pseudovirus neutralization in [3] was 0.006 µg/mL; in assay [6] it was 0.172 µg/mL. Besides, the IC50 (µg/mL), single-round pseudovirus neutralization in [5] was 0.19 µg/mL.
In the case of PGT-142 (4995_E20) (antibody), the figures for the IC50, pseudovirus neutralization in [23], in [25] and in assay [26] were over 50 µg/mL, 0.124 µg/mL and 23.5 µg/mL, respectively. Moreover, the IC50 in [24] was determined as 21.7 µg/mL.
As for 4993_K13 (PGT-141) (antibody), the IC50 (µg/mL), pseudovirus neutralization in assay [1] is over 5 µg/mL; in assay [2] it was over 50 µg/mL; in assay [4] it was over 50 µg/mL. Further, the IC50, pseudovirus neutralization in assay [3] amounted to 0.022 µg/mL; in assay [6], 0.586 µg/mL. The same substance gave an IC50 (µg/mL), single-round pseudovirus neutralization in [5] of 0.204 µg/mL.
On to 5343_B08 (PGT-135) (antibody), for which the IC50 (ug/mL), pseudovirus neutralization in assay [27] is 0.0139 µg/mL; in assay [32], over 10 µg/mL; in assay [34] it was over 10 µg/mL. The figures for the IC50 (µg/mL), pseudovirus neutralization in assay [28] and in assay [33] were 0.065 µg/mL and 1.29 µg/mL, respectively. Moreover, the Fold IC50 increase relative to wild-type (pseudovirus neutralization) in assay [29] was 1.2 fold; in assay [35], 1.4 fold; in assay [36] it was 0.8 fold. In addition, the IC50, pseudovirus neutralization in assay [30], in assay [31], in [37], in assay [38] and in [39] was over 50 µg/mL in each case.
PGT-143 (4980_N08) (antibody): the IC50, pseudovirus neutralization in [23] is over 50 µg/mL; in assay [25], 0.189 µg/mL; in assay [26] it was 26.3 µg/mL. Further, the IC50 in assay [24] is over 50 µg/mL.
PGT-145 (4995_P16) (antibody): the figures for the IC50, pseudovirus neutralization in [23], in [25] and in assay [26] were over 50 µg/mL, 0.228 µg/mL and 0.286 µg/mL, respectively. In addition, the 50% inhibitory concentration (IC50) in assay [24] was 14.4 µg/mL.
